Data as given in the supplement of paper PMC6757056.
± gives the standard deviation of the averaged measurements.

B1: library; a variant is named by its letters at N, in order (parent)
chain: GCUGUCACCGGUGUAUUACCCUAGUGGUCGACCGGUCUGAUGAGUCUNNNNNNAGACGAAACAGC

Columns and labels:
[1] = variants of: B1; test: normalized RNA/DNA level with ligand (relative to sTRSVctl = 100) (log10 (% of sTRSVctl)); ligand: hypoxanthine (xanthine aptamer); higher = less ribozyme self-cleavage, higher mRNA level; conditions: ligand concentration (+) RNA-Seq: 5 mM, HEK293T, reporter: mCherry (pCS4076), ligand present: yes
Procedure, shortened: (§1)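 RNA level was computed as RNA reads over DNA reads divided by a spiked-in non-cleaving sequence or by the top sequences, then scaled and log-transformed. Scaling was ×100 with log10, the top group was 25 sequences, and the threshold was ≥100 DNA reads. The reads came from HEK293T cells transfected at 4 µg per 6-well well with ribozyme switch library plasmids (mCherry, or eGFP in some ligand experiments). Total RNA was extracted with EDTA 72 h after transfection, with any ligand added 1 h before it.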

[2] = variants of: B1; test: normalized RNA/DNA level without ligand (relative to sTRSVctl = 100) (log10 (% of sTRSVctl)); ligand: hypoxanthine (xanthine aptamer); higher = less ribozyme self-cleavage, higher mRNA level; conditions: HEK293T, reporter: mCherry (pCS4076), ligand present: no
Procedure, shortened: as §1

ACGCCG
normalized RNA/DNA level with ligand (log10) [1]: 1.873 ± 0.011
normalized RNA/DNA level without ligand (log10) [2]: 1.4 ± 0.032

ACGCCC
normalized RNA/DNA level with ligand (log10) [1]: 1.94 ± 0.026
normalized RNA/DNA level without ligand (log10) [2]: 1.875 ± 0.0043

ACGCCA
normalized RNA/DNA level with ligand (log10) [1]: 1.95 ± 0.045
normalized RNA/DNA level without ligand (log10) [2]: 1.81 ± 0.019

ACGCCU
normalized RNA/DNA level with ligand (log10) [1]: 1.945 ± 0.008
normalized RNA/DNA level without ligand (log10) [2]: 1.63 ± 0.068

GCCUCC
normalized RNA/DNA level with ligand (log10) [1]: 1.95 ± 0.043
normalized RNA/DNA level without ligand (log10) [2]: 1.95 ± 0.023

GCCUCA
normalized RNA/DNA level with ligand (log10) [1]: 1.98 ± 0.07
normalized RNA/DNA level without ligand (log10) [2]: 1.9 ± 0.024

GCCUCU
normalized RNA/DNA level with ligand (log10) [1]: 2.011 ± 0.019
normalized RNA/DNA level without ligand (log10) [2]: 1.96 ± 0.02

ACUACA
normalized RNA/DNA level with ligand (log10) [1]: 1.92 ± 0.0088
normalized RNA/DNA level without ligand (log10) [2]: 1.841 ± 0.014

ACUACC
normalized RNA/DNA level with ligand (log10) [1]: 2 ± 0.03
normalized RNA/DNA level without ligand (log10) [2]: 1.9024 ± 0.00086

UCGGUG
normalized RNA/DNA level with ligand (log10) [1]: 1.9763 ± 0.0017
normalized RNA/DNA level without ligand (log10) [2]: 1.67 ± 0.028

UCGGUC
normalized RNA/DNA level with ligand (log10) [1]: 2.034 ± 0.0059
normalized RNA/DNA level without ligand (log10) [2]: 1.969 ± 0.012

UCGGUU
normalized RNA/DNA level with ligand (log10) [1]: 1.938 ± 0.006
normalized RNA/DNA level without ligand (log10) [2]: 1.61 ± 0.04

CCUAAC
normalized RNA/DNA level with ligand (log10) [1]: 1.93 ± 0.042
normalized RNA/DNA level without ligand (log10) [2]: 1.825 ± 0.0078

CCUAAU
normalized RNA/DNA level with ligand (log10) [1]: 1.94 ± 0.12
normalized RNA/DNA level without ligand (log10) [2]: 1.86 ± 0.1

CCUAAG
normalized RNA/DNA level with ligand (log10) [1]: 1.91 ± 0.05
normalized RNA/DNA level without ligand (log10) [2]: 1.66 ± 0.013

UCCUCA
normalized RNA/DNA level with ligand (log10) [1]: 2 ± 0.033
normalized RNA/DNA level without ligand (log10) [2]: 1.88 ± 0.048

UCCUCU
normalized RNA/DNA level with ligand (log10) [1]: 1.99 ± 0.053
normalized RNA/DNA level without ligand (log10) [2]: 1.98 ± 0.029

UCCUCC
normalized RNA/DNA level with ligand (log10) [1]: 1.99 ± 0.055
normalized RNA/DNA level without ligand (log10) [2]: 1.78 ± 0.039

UCCUCG
normalized RNA/DNA level with ligand (log10) [1]: 1.97 ± 0.065
normalized RNA/DNA level without ligand (log10) [2]: 1.68 ± 0.058

UCGCGC
normalized RNA/DNA level with ligand (log10) [1]: 2.01 ± 0.035
normalized RNA/DNA level without ligand (log10) [2]: 1.8 ± 0.024

UCGCGA
normalized RNA/DNA level with ligand (log10) [1]: 1.89 ± 0.03
normalized RNA/DNA level without ligand (log10) [2]: 1.69 ± 0.071

UCGCGG
normalized RNA/DNA level with ligand (log10) [1]: 1.93 ± 0.1
normalized RNA/DNA level without ligand (log10) [2]: 1.78 ± 0.037

ACGAUU
normalized RNA/DNA level with ligand (log10) [1]: 1.837 ± 0.0076
normalized RNA/DNA level without ligand (log10) [2]: 1.32 ± 0.019

ACGAUC
normalized RNA/DNA level with ligand (log10) [1]: 1.963 ± 0.0088
normalized RNA/DNA level without ligand (log10) [2]: 1.89 ± 0.013

UCGAAU
normalized RNA/DNA level with ligand (log10) [1]: 1.87 ± 0.043
normalized RNA/DNA level without ligand (log10) [2]: 1.476 ± 0.0078

UCGAAC
normalized RNA/DNA level with ligand (log10) [1]: 1.929 ± 0.011
normalized RNA/DNA level without ligand (log10) [2]: 1.734 ± 0.012

UCGAGC
normalized RNA/DNA level with ligand (log10) [1]: 1.97 ± 0.029
normalized RNA/DNA level without ligand (log10) [2]: 1.6 ± 0.1

UCGAGG
normalized RNA/DNA level with ligand (log10) [1]: 1.89 ± 0.036
normalized RNA/DNA level without ligand (log10) [2]: 1.59 ± 0.056

UCGUCC
normalized RNA/DNA level with ligand (log10) [1]: 1.98 ± 0.026
normalized RNA/DNA level without ligand (log10) [2]: 1.95 ± 0.0024

UCGUCG
normalized RNA/DNA level with ligand (log10) [1]: 1.99 ± 0.042
normalized RNA/DNA level without ligand (log10) [2]: 1.85 ± 0.049

UCGUCA
normalized RNA/DNA level with ligand (log10) [1]: 1.986 ± 0.016
normalized RNA/DNA level without ligand (log10) [2]: 1.807 ± 0.0051

UCGUCU
normalized RNA/DNA level with ligand (log10) [1]: 1.93 ± 0.049
normalized RNA/DNA level without ligand (log10) [2]: 1.87 ± 0.062

UCGCAC
normalized RNA/DNA level with ligand (log10) [1]: 1.97 ± 0.069
normalized RNA/DNA level without ligand (log10) [2]: 1.827 ± 0.014

UCGCAU
normalized RNA/DNA level with ligand (log10) [1]: 1.87 ± 0.022
normalized RNA/DNA level without ligand (log10) [2]: 1.68 ± 0.018

GCUACA
normalized RNA/DNA level with ligand (log10) [1]: 1.95 ± 0.02
normalized RNA/DNA level without ligand (log10) [2]: 1.85 ± 0.025

GCUACU
normalized RNA/DNA level with ligand (log10) [1]: 1.95 ± 0.059
normalized RNA/DNA level without ligand (log10) [2]: 1.89 ± 0.026

CCGAGC
normalized RNA/DNA level with ligand (log10) [1]: 1.899 ± 0.0048
normalized RNA/DNA level without ligand (log10) [2]: 1.44 ± 0.037

CCGAGU
normalized RNA/DNA level with ligand (log10) [1]: 1.89 ± 0.03
normalized RNA/DNA level without ligand (log10) [2]: 1.57 ± 0.029

ACGCGU
normalized RNA/DNA level with ligand (log10) [1]: 1.95 ± 0.021
normalized RNA/DNA level without ligand (log10) [2]: 1.57 ± 0.096

ACGCGA
normalized RNA/DNA level with ligand (log10) [1]: 1.77 ± 0.072
normalized RNA/DNA level without ligand (log10) [2]: 1.29 ± 0.05

UCCUGA
normalized RNA/DNA level with ligand (log10) [1]: 1.974 ± 0.017
normalized RNA/DNA level without ligand (log10) [2]: 1.77 ± 0.069

UCCUGU
normalized RNA/DNA level with ligand (log10) [1]: 1.93 ± 0.021
normalized RNA/DNA level without ligand (log10) [2]: 1.86 ± 0.043

UCGGAU
normalized RNA/DNA level with ligand (log10) [1]: 1.86 ± 0.036
normalized RNA/DNA level without ligand (log10) [2]: 1.3978 ± 0.00098

UCGGAA
normalized RNA/DNA level with ligand (log10) [1]: 1.84 ± 0.043
normalized RNA/DNA level without ligand (log10) [2]: 1.31 ± 0.017

UCGGAC
normalized RNA/DNA level with ligand (log10) [1]: 1.981 ± 0.002
normalized RNA/DNA level without ligand (log10) [2]: 1.877 ± 0.012

GCUAUA
normalized RNA/DNA level with ligand (log10) [1]: 1.93 ± 0.03
normalized RNA/DNA level without ligand (log10) [2]: 1.89 ± 0.034

GCUAUC
normalized RNA/DNA level with ligand (log10) [1]: 1.966 ± 0.016
normalized RNA/DNA level without ligand (log10) [2]: 1.84 ± 0.058

UCGUAC
normalized RNA/DNA level with ligand (log10) [1]: 1.94 ± 0.055
normalized RNA/DNA level without ligand (log10) [2]: 1.77 ± 0.031

UCGUAA
normalized RNA/DNA level with ligand (log10) [1]: 1.87 ± 0.04
normalized RNA/DNA level without ligand (log10) [2]: 1.53 ± 0.066

UCGUAU
normalized RNA/DNA level with ligand (log10) [1]: 1.92 ± 0.045
normalized RNA/DNA level without ligand (log10) [2]: 1.61 ± 0.024

ACCUAU
normalized RNA/DNA level with ligand (log10) [1]: 1.908 ± 0.015
normalized RNA/DNA level without ligand (log10) [2]: 1.792 ± 0.0054

GCGGGC
normalized RNA/DNA level with ligand (log10) [1]: 1.86 ± 0.046
normalized RNA/DNA level without ligand (log10) [2]: 1.58 ± 0.084

GCUAGU
normalized RNA/DNA level with ligand (log10) [1]: 1.92 ± 0.11
normalized RNA/DNA level without ligand (log10) [2]: 1.722 ± 0.0072

GCUAGC
normalized RNA/DNA level with ligand (log10) [1]: 1.89 ± 0.1
normalized RNA/DNA level without ligand (log10) [2]: 1.79 ± 0.079

GCUAGA
normalized RNA/DNA level with ligand (log10) [1]: 1.92 ± 0.031
normalized RNA/DNA level without ligand (log10) [2]: 1.71 ± 0.029

GCUAGG
normalized RNA/DNA level with ligand (log10) [1]: 1.83 ± 0.039
normalized RNA/DNA level without ligand (log10) [2]: 1.48 ± 0.02

ACGACC
normalized RNA/DNA level with ligand (log10) [1]: 1.97 ± 0.051
normalized RNA/DNA level without ligand (log10) [2]: 1.85 ± 0.02
